Test results as given in US7803382B2, “Method for inducing immune response to NY-CO-58” (Ludwig Institute for Cancer Research Ltd., priority 2001, dated 2010).

system: sera from colon cancer patients; test: Spot assay: reactivity of serologically defined colon cancer antigens with colon cancer patient sera; format: binding, human; details: reactive sera/sera tested; includes autologous where applicable; sera 1:200
Protocol: Serum samples from patients with colon cancer were screened using a modification of the plaque assay, termed a spot assay. In this method, 80×120 mm nitrocellulose membranes were precoated with a film of NZY/0.7% Agarose/2.5 mM IPTG and placed on a reservoir layer of NZY/0.7% Agarose in a 86×128 mm Omni Tray (Nalge Nunc International Corp., Naperville, Ill.). Approximately 1.0×10^5 pfU of monoclonal phage encoding individual serologically defined colon cancer antigens, in a volume of 20 μl, were mixed with 20 μl of exponentially growing E. coli XL-1 Blue MRF and spotted (0.7-μl aliquots) on the precoated nitrocellulose membranes. Membranes were incubated for 15 hours at 37° C. A total of 75 different serologically defined colon cancer antigens were spotted in duplicate per nitrocellulose membrane. The agarose film was then removed from the membrane and the filters were processed for reactivity with individual serum samples (1:200 dilution), as described in Scanlan, et al., Int. J. Cancer 76:652-658 (1998) and Scanlan, et al., Int. J. Cancer 83:456-64, (1999).

Molecule | Reactivity of individual antigens
CO-41 (MBD2): serologically defined colon cancer antigen, protein SEQ ID NO:23 (protein, listed as Homo sapiens) PSKLQKNKQRLRNDPLNQNKGKPDLNTTLPIRQTASIFKQPVTKVTNHPSNKVKSDPQRMNEQPRQLFWEKRLQGLSASDVTEQIIKTMELPKGLQGVGPGSNDETLLSAVASALHTSSAPITGQVSAAVEKNPAVWLNTSQPLCKAFIVTDEDIRKQEERVQQVRKKLEEALMADILSRAADTEEMDIEMDSGDEA | 3/76
CO-9 (HDAC 5): serologically defined colon cancer antigen, protein SEQ ID NO:18 (protein, listed as Homo sapiens) EFLLSKSKEPTPGGLNHSLPQHPKCWGAHHASLDQSSPPQSGPPGTPPSYKLPLPGPYDSRDDFPLRKTASEPNLKVRSRLKQKVAERRSSPLLRRKDGTVISTFKKRAVEITGAGPGASSVCNSAPGSGPSSPNSSHSTIAENGFTGSVPNIPTEMLPQHRALPLDSSPNQFSLYTSPSLPNISLGLQATVTVTNSHLTASPKLSTQQEAERQALQSLRQGGTLTGKFMSTSSIPGCLLGVALEGDGSPHGHASLLQHVLLLEQARQQSTLIAVPLHGQSPLVTGERVATSMRTVGKLPRHRPLSRTQSSPLPQSPQALQQLVMQQQHQQFLEKQKQQQLQLGKILTKTGELPRQPTTHPEETEEELTEQQEVLLGEGALTMPREGSTESESTQEDLEEEDEEEDGEEEEDCIQVKDEEGESGAEEGPDLEEPGAGYKKLFSDAQPLQPLQVYQAPLSLATVPHQALGRTQSSPAAPGGMKNPPDQPVKHLFTTSVVYDTFMLKHQCMCGNTHVHPEHAGRIQSIWSRLQETGLLSKCERIRGRKATLDEIQTVHSEYHTLLYGTSPLNRQKLDSKKLLGPISQKMYAVLPCGGIGVDSDTVWNEMHSSSAVRMAVGCLLELAFKVAAGELKNGFAIIRPPGHHAEESTAMGFCFFNSVAITAKLLQQKLNVGKVLIVDWDIHHGNGTQQAFYNDPSVLYISLHRYDNGNFFPGSGAPEEVGGGPGVGYNVNVAWTGGVDPPIGDVEYLTAFRTVVMPIAHEFSPDVVLVSAGFDAVEGHLSPLGGYSVTARCFGHLTRQLMTLAGGRVVLALEGGHDLTAICDASEACVSALLSVKLQPLDEAVLQQKPNINAVATLEKVIEIQSKHWSCVQKFAAGLGRSLRGAQAGETEEAEM | 3/76
SSX-2: serologically defined colon cancer antigen, protein SEQ ID NO:28 (protein, listed as Homo sapiens) MNGDDAFARRPTVGAQIPEKIQKAFDDIAKYFSKEEWEKMKASEKIFYVYMKRKYEAMTKLGFKATLPPFMCNKRAEDFQGNDLDNDPNRGNQVERPQMTFGRLQGISPKIMPKKPAEEGNDSEEVPEASGPQNDGKELCPPGKPTTSEKIHERSGPKRGEHAWTHRLRERKQLVIYEEISDPEEDDE | 2/75
CO-42 (TRIP4): serologically defined colon cancer antigen, protein SEQ ID NO:22 (protein, listed as Homo sapiens) AEVKTPFDLAKAQENSNSVKKKTKFVNLYTRERQDRLAVLLPGRHPCDCLGQKHKLINNCLICGRIVCEQEGSGPCLFCGTLVCTHEEQDILQRDSNKSQKLLKKLMSGVENSGKVDISTKDLLPHQELRIKSGLEKAIKHKDKLLEFDRTSIRRTQVIDDESDYFASDSNQWLSKLERETLQKREEELRELRHASRLSKKVTIDFAGRKILEEENSLAEYHSRLDETIQAIANGTLNQPLTKLDRSSEEPLGVLVNPNMYQSPPQWLTTQVQPHRRRLSVLQDLD | 7/76
CO-61 (HIP1R): serologically defined colon cancer antigen, protein SEQ ID NO:19 (protein, listed as Homo sapiens) MFDYMDCELKLSESVFRQLNTAIAVSQMSSGQCRLAPLIQVIQDCSHLYHYTVKLLFKLHSCLPADTLQGHRDRFHEQFHSLRNFFRRASDMLYFKRLIQIPRLPEGPPNFLRASALAEHIKPVVVIPEEAPEDEEPENLIEISTGPPAGEPVVVADLFDQTFGPPNGSVKDDRDLQIESLKREVEMLRSELEKIKLEAQRYIAQLKSQVNALEGELEEQRKQKQKALVDNEQLRHELAQLRAAQLEGERSQGLREEAERKASATEARYNKLKEKHSELVHVHAELLRKNADTAKQLTVTQQSQEEVARVKEQLAFQVEQVKRESELKLEEKSDQLEKLKRELEAKAGELARAQEALSHTEQSKSELSSRLDTLSAEKDALSGAVRQREADLLAAQSLVRETEAALSREQQRSSQEQGELQGRLAERESQEQGLRQRLLDEQFAVLRGAAAEAAGILQDAVSKLDDPLHLRCTSSPDYLVSRAQEALDAVSTLEEGHAQYLTSLADASALVAALTRFSHLAADTIINGGATSHLAPTDPADRLIDTCRECGARALELMGQLQDQQALRHMQASLVRTPLQGILQLGQELKPKSLDVRQEELGAVVDKEMAATSAAIEDAVRRIEDMMNQARHASSGVKLEVNERILNSCTDLMKAIRLLVTTSTSLQKEIVESGRGAATQQEFYAKNSRWTEGLISASKAVGWGATQLVEAADKVVLHTGKYEELIVCSHEIAASTAQLVAASKVKANKHSPHLSRLQECSRTVNERAANVVASTKSGQEQIEDRDTMDFSGLSLIKLKKQEMETQVRVLELEKTLEAERMRLGELRKQHYVLAGASGSPGEEVAIRPSTAPRSVTTKKPPLAQKPSVAPRQDHQLDKKDGIYPAQLVNY | 5/75
CO-94 (seb4D): serologically defined colon cancer antigen, protein SEQ ID NO:17 (protein, listed as Homo sapiens, X: residue not identified in the source) RPSLPRALPAAPHERSPARPGSVGGGAPPMLLQPAPCAPSAGFPRPLAAPGAMHLFAEGHHVHQDLRGRPAVPHYRRLAQEVLXGLRRHLRRPWSSPTAXRASPAATAS | 4/75
MAGE-3: serologically defined colon cancer antigen, protein SEQ ID NO:29 (protein, listed as Homo sapiens) MPLEQRSQHCKPEEGLEARGEALGLVGAQAPATEEQEAASSSSTLVEVTLGEVPAAESPDPPQSPQGASSLPTTMNYPLWSQSYEDSSNQEEEGPSTFPDLESEFQAALSRKVAELVHFLLLKYRAREPVTKAEMLGSVVGNWQYFFPVIFSKASSSLQLVFGIELMEVDPIGHLYIFATCLGLSYDGLLGDNQIMPKAGLLIIVLAIIAREGDCAPEEKIWEELSVLEVFEGREDSILGDPKKLLTQHFVQENYLEYRQVPGSDPACYEFLWGPRALVETSYVKVLHHMVKISGGPHISYPPLHEWVLREGEE | 6/75
CO-45 (Tudor like): serologically defined colon cancer antigen, protein SEQ ID NO:21 (protein, listed as Homo sapiens) RVKATLSERKIGDSCDKDLPLKFCEFPQKTIMPGFKTTVYVSHINDLSDFYVQLIEDEAEISHLSERLNSVKTRPEYYVGPPLQRGDMICAVFPEDNLWYRAVIKEQQPNDLLSVQFIDYGNVSVVHTNKIGRLDLVNAILPGLCIHCSLQGFEVPDNKNSKKMMHYFSQRTSEAAIRCEFVKFQDRWEVILADEHGIIADDMISRYALSEKSQVELSTQVIKSASSKSVNKSDIDTSVFLNWYNPEKKMIRAYATVIDGPEYFWCQFADTEKLQCLEVEVQTAGEQVADRRNCIPCPYIGDPCIVRYREDGHYYRALITNICEDYLVSVRLVDFGNIEDCVDPKALWAIPSELLSVPMQAFPCCLSGFNISEGLCSQEGNDYFYEIITEDVLEITILEIRRDVCDIPLAIVDLKSKGKSINEKMEKYSKTGIKSALPYENIDSEIKQTLGSYNLDVGLKKLSNKAVQNKIYMEQQTDELAEITEKDVNIIGTKPSNFRDPKTDNICEGFENPCKDKIDTEELEGELECHLVDKAEFDDKYLITGFNTLLPHANETKEILELNSLEVPLSPDDESKEFLELESIELQNSLVVDEEKGELSPVPPNVPLSQECVTKGAMELFTLQLPLSCEAEKQPELELPTAQLPLDDKMDPLSLGVSQKAQESMCTEDMRKSSCVESFDDQRRMSLHLHGADCDPKTQNEMNICEEEFVEYKNRDAISALMPFSLRKKAVMEASTIMVYQIIFQNYRTPTL | 4/76
